Results reported in patent US20190085314A1 (SAINT LOUIS UNIVERSITY, published 2019).
Blank lines part the entries; values can stand above or below the molecule they belong to.

What was measured:
[1] = molecular target: AtUBC8 (Arabidopsis thaliana ubiquitin conjugating enzyme E2 8), 6xHIS-tagged (Arabidopsis thaliana) (UniProt P35131); experiment: Delta G calculated for residues 74-82 of AtMUB3 within the co-crystal structure; unit not given
[2] = molecular target: AtUBC8 (Arabidopsis thaliana ubiquitin conjugating enzyme E2 8), 6xHIS-tagged (Arabidopsis thaliana) (UniProt P35131); experiment: interface area calculated for residues 74-82 of AtMUB3 within the co-crystal structure
[3] = molecular target: T1, AtUBC8 (Arabidopsis thaliana ubiquitin conjugating enzyme E2 8), 6xHIS-tagged (Arabidopsis thaliana, UniProt P35131 1-148); experiment: Isothermal titration calorimetry (MicroCal iTC200), 110 uM AtMUB3 titrated into 8 uM AtUBC8, OneSites model; 25 mM HEPES pH 7.5, 200 mM NaCl, 1 mM TCEP
T1 construct: The crystal model holds residues 1-147/1-148; also called AtUBC08; not shown: 6xHIS tag
Method: FIG. 13. […] Proteins were purified as described for crystallization and dialyzed extensively against a buffer containing 25 mM HEPES, pH 7.5, 200 mM NaCl, 1 mM TCEP. Data was processed with MicroCal Origin 7 software, and normalized against the dialysis buffer's heat of dilution.

[4] = molecular target: T2, biotinylated E2 (Ube2D3), from the E1/E2 Lite kit (LifeSensors) (UniProt P61077 1-147, limits assumed, biotinylated (site not stated); labelled with streptavidin-terbium in the assay); experiment: HTRF-FRET E2 activation assay; initial velocity against HsMUB concentration, one-site binding fit; IC50 equal to Ki under limiting E2
T2 construct: Bought kit reagent; also called biotinylated Ube2D3
T2 sequence (P61077 whole entry): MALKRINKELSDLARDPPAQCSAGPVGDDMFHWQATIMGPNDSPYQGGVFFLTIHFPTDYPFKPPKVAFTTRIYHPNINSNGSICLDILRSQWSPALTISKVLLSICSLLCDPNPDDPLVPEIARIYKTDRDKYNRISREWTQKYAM

T1 sequence (P35131 whole entry, the tested form may be a part): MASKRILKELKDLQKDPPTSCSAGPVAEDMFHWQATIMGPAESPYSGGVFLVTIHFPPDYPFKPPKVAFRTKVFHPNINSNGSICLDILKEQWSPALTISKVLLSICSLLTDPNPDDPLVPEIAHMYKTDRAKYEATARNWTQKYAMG
Chain of AtUBC8 (Arabidopsis thaliana ubiquitin conjugating enzyme E2 8), 6xHIS-tagged (Arabidopsis thaliana) (P35131 whole entry, the tested form may be a part): as above

- Delta G [1]: -5
- Surface area (Å^2) [2]: 288 Å^2
Molecule: AtMUB3 (74-82) (from UniProt Q9SW27 74-82)

- Ka [3]: 3.53e+06 M⁻¹
- Kd [3]: 283 nM
- ΔH [3]: -8.84 kcal/mol
- ΔS [3]: 0.331 cal/mol/deg
B1: AtMUB3 (Arabidopsis thaliana Membrane-anchored Ubiquitin-fold protein 3), 6xHIS-tagged (other, UniProt Q9SW27 1-118, looked up)
chain: MPEEESIDIKFRLYDGSDIGPFRYSAASTVDFLKQRVVSDWPKGKTVVPKGINEVKLISSGKILENNKTVGQCKTPFGDIAGGVIVMHVVVQPSLAKSKTEKKVDKAPKAVICTCTIL
notes: Expressed in E. coli, so not prenylated; An N-terminal 6xHIS AtMUB3 is also described; also called AtMUB3-His; not shown: C-terminal 6xHIS tag from pET28b

- Ki [4]: 220 nM
B2: HsMUB (Homo sapiens Membrane-anchored Ubiquitin-fold protein), C-terminal 6xHIS (other)
chain: MSSNVPADMINLRLILVSGKTKEFLFSPNDSASDIAKHVYDNWPMDWEEEQVSSPNILRLIYQGRFLHGNVTLGALKLPFGKTTVMHLVARETLPEPNSQGQRNREKTGESNCCVIL
notes: The coding region was cloned with the stop codon removed; also called Ubl3; human MUB; not shown: C-terminal 6xHIS tag from pET28b
